{
  "source": "patent US20200247855A1",
  "about": "“THERAPY AND DIAGNOSTICS” (OXFORD UNIVERSITY INNOVATION LIMITED, priority 2017, published 2020)",
  "molecules": {"B1": {"name": "EVASIN3: previously described tick CKBP evasin 3, from Rhipicephalus sanguineus (protein, listed as Rhipicephalus sanguineus)", "chain": "LVSTIESRTSGDGADNFDVVSCNKNCTSGQNECPEGCFCGLLGQNKKGHCYKIIGNLSGEPPVVRR"}, "B2": {"name": "P1156_IXORI: tick CKBP, Ixodes ricinus (protein, listed as Ixodes ricinus)", "chain": "ADDDNELFTVQYCGMNCTKDEGGTWTGCTGKKEGCKCYHESGKNYGLCLSTEYTDFSQYGNPSDSEIEAAKPKRSDTLSH"}, "B3": {"name": "P1014_AMBCA: tick CKBP, Amblyomma cajennense (protein)", "chain": "DIIGGIPGCGDPTTTSAPEVPPKHFAVRTDKDGCTLMIIGTWMTTEDHNRLPPDIGEKRAPYGRVQLPASCKKNCHGKVKNLPNGTPCREVFGDPRRGRKHIKNGCTVGKCQSGLCVTDKRIISCYIPPNITDPIPTHGPWAE", "modifications": "Amblyomma cajennense"}, "B4": {"name": "P1006_AMBCA: tick CKBP, Amblyomma cajennense (protein)", "chain": "DTIGGIPGCGDPATTSAPEDQPKHYAVRTDKNGCKVMVIGTWMTKEDHNLLPPYISKERAPSGKVQLPASCKKNCHGKLKNLPNGTPCREVFGDLRRRRKHIKDGCKVGKCQNGLCVSEERIISCYLPPNITDPRPTHGPLAE", "modifications": "Amblyomma cajennense"}},
  "key": {"chemokines": {"test_system": "chemokines", "conditions": "list of chemokines bound, from the literature [18,20-22]; cited from earlier work"}, "CXCL1_HUMAN [1]": {"target": "T1, CXCL1_HUMAN (Homo sapiens, UniProt P09341)", "T1 sequence (P09341 35-107)": "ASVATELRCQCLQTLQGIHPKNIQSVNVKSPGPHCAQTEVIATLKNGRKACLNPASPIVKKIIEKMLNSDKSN", "conditions": "read-out: Kd, CXCL1_HUMAN, previously described evasins; data obtained from publications [20-22,32]; cited from earlier work"}, "CXCL8_HUMAN [2]": {"target": "T2, CXCL8_HUMAN (Homo sapiens, UniProt P10145)", "T2 sequence (P10145 21-99)": "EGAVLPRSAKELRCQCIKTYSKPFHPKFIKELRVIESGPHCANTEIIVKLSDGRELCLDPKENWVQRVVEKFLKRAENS", "conditions": "read-out: Kd, CXCL8_HUMAN, previously described evasins; data obtained from publications [20-22,32]; cited from earlier work"}, "CXCL3_HUMAN": {"target": "T3, CXCL3_HUMAN (Homo sapiens, UniProt P19876)", "T3 sequence (P19876 35-107)": "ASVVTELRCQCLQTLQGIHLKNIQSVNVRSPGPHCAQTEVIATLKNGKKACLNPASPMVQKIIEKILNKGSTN", "test": "Biolayer interferometry (BLI) binding", "outline": "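First, His-tagged tick CKBP is immobilised on a Ni-NTA tip. Second, chemokine is applied at 300 nM to screen for binding. Third, positive pairs are titrated with varying chemokine doses and association/dissociation fits give Kd in molar units.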"}, "CXCL1_HUMAN [3]": {"target": "T1, CXCL1_HUMAN", "test": "Biolayer interferometry (BLI) binding", "design": "label (chemical)", "procedure": "(§1) Table 1. Tick CKBPs described in PCT/GB2017/050563 and [17]. Tick peptide sequences isolated in yeast surface display fluorescent-activated cell sorting (FACS) screens using a labelled chemokine. Identity with Evasin-1, 4 or 3 was calculated using BLAST. Abbreviations: IXORI—Ixodes ricinus, RHISA—Rhipicephalus sanguineus, AMBMA—Amblyomma maculatum, AMBPA—Amblyomma parvum, AMBTR—Amblyomma triste, AMBAM—Amblyomma americanum, AMBCA—Amblyomma cajennense, RHIPU—Rhipicephalus pulchellus. Table 2A-C. Binding characteristics of tick CKBPs previously disclosed (PCT/GB2017/050563 and [17]). All members of the human chemokine family[164] are listed in column 1. Binding to human chemokines was determined for 14 tick CKBPs using biolayer interferometry (BLI) with calculated Kd shown as Molar (Moles/Litre). […] Association, equilibrium and dissociation data were analysed using Octet software to create corresponding fitted curves, and used to calculate Kd. For yeast surface display, (YSD) background fluorescence was controlled for by using either an empty vector or by omitting the chemokine (i.e. using streptavidin-Alexa647 alone). An arbitrary threshold of >3 fold over background mean fluorescence intensity was chosen to describe confirmed re-tests. Where binding was detected data are indicated as “YES”. […] Data was analysed using GraphPad Prism to determine IC50, which is shown as Molar (Moles/Litre). […]"}, "CXCL8_HUMAN [4]": {"target": "T2, CXCL8_HUMAN", "test": "Biolayer interferometry (BLI) binding", "design": "label (chemical)", "procedure": "as §1"}, "CCL4_HUMAN": {"target": "T4, CCL4_HUMAN (Homo sapiens, UniProt P13236)", "T4 sequence (P13236 24-92)": "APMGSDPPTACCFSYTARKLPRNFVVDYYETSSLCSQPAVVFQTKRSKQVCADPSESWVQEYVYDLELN", "test": "Yeast surface display (YSD) FACS binding", "outline": "(§2)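 Yeast clones displaying tick peptides were re-tested by FACS with labelled chemokine. Binding = % of peptide-expressing yeast above a background threshold set with streptavidin-Alexa647 alone; the mean percent shift was used where several clones were isolated. Confirmed binding (\"YES\") required >3-fold over background mean fluorescence intensity.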"}, "CCL15_HUMAN": {"target": "T5, CCL15_HUMAN (Homo sapiens, UniProt Q16663)", "T5 sequence (Q16663 22-113)": "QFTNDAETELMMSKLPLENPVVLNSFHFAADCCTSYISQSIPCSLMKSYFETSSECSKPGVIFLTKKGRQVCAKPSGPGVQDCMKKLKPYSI", "test": "Yeast surface display (YSD) FACS binding", "outline": "as §2"}, "CCL19_HUMAN": {"target": "T6, CCL19_HUMAN (Homo sapiens, UniProt Q99731)", "T6 sequence (Q99731 22-98)": "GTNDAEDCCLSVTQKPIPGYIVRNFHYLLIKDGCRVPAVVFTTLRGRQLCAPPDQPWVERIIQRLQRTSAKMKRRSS", "test": "Yeast surface display (YSD) FACS binding", "outline": "as §2"}, "CCL25_HUMAN": {"target": "T7, CCL25_HUMAN (Homo sapiens, UniProt O15444)", "T7 sequence (O15444 24-150)": "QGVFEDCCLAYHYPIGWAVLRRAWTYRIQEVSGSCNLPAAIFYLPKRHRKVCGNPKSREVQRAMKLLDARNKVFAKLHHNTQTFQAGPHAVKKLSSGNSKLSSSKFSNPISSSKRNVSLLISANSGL", "test": "Yeast surface display (YSD) FACS binding", "outline": "as §2"}, "CCL5_HUMAN": {"target": "T8, CCL5_HUMAN (Homo sapiens, UniProt P13501)", "T8 sequence (P13501 24-91)": "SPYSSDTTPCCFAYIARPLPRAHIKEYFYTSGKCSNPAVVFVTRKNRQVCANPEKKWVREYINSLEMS", "test": "Yeast surface display (YSD) FACS binding", "outline": "as §2"}},
  "note": "Read-outs that look alike come from different tables or passages of the source.",
  "data": [
    {"molecule": "B1", "values": [
      {"measurement": "Previously described chemokine binding", "setting": "chemokines", "result": "CXCL1, CXCL8."},
      {"measurement": "Kd", "setting": "CXCL1_HUMAN [1]", "result": 0.85, "unit": "nM"},
      {"measurement": "Kd", "setting": "CXCL8_HUMAN [2]", "result": 0.43, "unit": "nM"}
    ]},
    {"molecule": "B2", "values": [
      {"measurement": "Kd", "setting": "CXCL3_HUMAN", "result": 81, "unit": "nM"},
      {"measurement": "Kd", "setting": "CXCL1_HUMAN [3]", "result": 3.25, "unit": "nM"},
      {"measurement": "Kd", "setting": "CXCL8_HUMAN [4]", "result": 4.6, "unit": "nM"}
    ]},
    {"molecule": "B3", "values": [
      {"measurement": "Binding to CCL4_HUMAN, YSD", "setting": "CCL4_HUMAN", "result": "YES (An arbitrary threshold of >3 fold over background mean fluorescence intensity was chosen to describe confirmed re-tests. Where binding was detected data are indicated as “YES”)"}
    ]},
    {"molecule": "B4", "values": [
      {"measurement": "Binding to CCL15_HUMAN, YSD", "setting": "CCL15_HUMAN", "result": "YES (An arbitrary threshold of >3 fold over background mean fluorescence intensity was chosen to describe confirmed re-tests. Where binding was detected data are indicated as “YES”)"},
      {"measurement": "Binding to CCL19_HUMAN, YSD", "setting": "CCL19_HUMAN", "result": "YES (An arbitrary threshold of >3 fold over background mean fluorescence intensity was chosen to describe confirmed re-tests. Where binding was detected data are indicated as “YES”)"},
      {"measurement": "Binding to CCL25_HUMAN, YSD", "setting": "CCL25_HUMAN", "result": "YES (An arbitrary threshold of >3 fold over background mean fluorescence intensity was chosen to describe confirmed re-tests. Where binding was detected data are indicated as “YES”)"},
      {"measurement": "Binding to CCL5_HUMAN, YSD", "setting": "CCL5_HUMAN", "result": "YES (An arbitrary threshold of >3 fold over background mean fluorescence intensity was chosen to describe confirmed re-tests. Where binding was detected data are indicated as “YES”)"}
    ]}
  ]
}
